Experimental data from the supplement of paper PMC10567573.

B1: DYRK1B (parent)
chain: YQGPGTRRLQEVLGVQTGGPGGRR
B2: NET1 (parent)
chain: IKRTIRVLDVNNQSFREQEEPSNK

Variants of: B1
Test: protein stability index of a GFP-peptide fusion (GPS, HEK-293T) (PSI 1-6); higher = more stable
Details: c terminus: a fixed tail appended
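Note: lentivirally expressed fusions sorted by FACS into six bins by GFP to DsRed ratio, PSI derived from sequencing read proportions per bin multiplied by bin number.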

Variant	protein stability index
G18Y	2.94
G18N	3.34
G18W	2.81
G18I	2.4
G18A	3
G18T	3.51
G18E	3.52
G18K	2.6
G18P	2.84
G18H	3.19
G18C	3.07
G18D	4.02
G18V	3.06
G18S	3.15
G18Q	3.68
G18L	2.74
G18M	2.79
G18F	3.23
L13N	3.85
L13C	3.88
L13K	3.79
L13H	3.94
L13F	2.9
L13R	3.61

Variant	protein stability index
L13T	3.97
L13E	4.44
L13S	4.07
L13P	3.44
L13M	3.31
L13W	1.67
L13D	3.93
L13A	3.58
L13Y	3.63
L13G	3.9
L13I	3.47
L13V	3.68
L13Q	3.89
P20L	2.82
P20A	3.22
P20Q	3.16
P20S	3.28
P20Y	2.77
P20I	2.84
P20T	3.32
P20W	2.02
P20K	3.83
P20M	3.02
P20E	3.3

Variant	protein stability index
P20G	3.15
P20V	2.76
P20C	3.49
P20D	3.51
P20N	3.1
P20H	2.81
P20R	3.39
P20F	2.32
R23W	2.22
R23Y	2.67
R23H	3.1
R23N	3.29
R23G	3.01
R23P	3.26
R23T	3.23
R23C	2.87
R23S	2.59
R23A	4.05
R23L	3.12
R23M	3.27
R23I	2.75
R23E	3.32
R23D	3.8
R23F	2.37

Variant	protein stability index
R23K	2.55
R23V	2.88
R23Q	3.38
G14Q	3.72
G14F	2.66
G14S	3.14
G14A	2.92
G14H	3.62
G14Y	2.98
G14L	2.75
G14V	3.14
G14C	1.55
G14P	4.17
G14M	3.25
G14D	4.18
G14N	4.25
G14I	2.14
G14T	2.66
G14W	2.11
G14K	2.9
G14E	3.73
G14R	3.37
R24L	2.87
R24S	3.45

Variant	protein stability index
R24P	3.45
R24G	3.4
R24I	3.75
R24Y	3.24
R24A	3.23
R24M	2.5
R24K	3.12
R24D	3.51
R24T	3.02
R24V	3.54
R24H	3.17
R24N	3.43
R24F	2.49
R24Q	3.06
R24C	3.18
R24W	2.73
R24E	3.67
G22S	3.05
G22P	3.48
G22Y	2.63
G22F	2.17
G22V	2.95
G22M	2.67
G22W	3.01

Variant	protein stability index
G22C	2.87
G22T	3.35
G22R	2.7
G22I	3.75
G22E	3.4
G22D	3.39
G22K	2.51
G22L	2.94
G22H	3.29
G22Q	3.48
G22A	3.13
G22N	3.44
V12G	3.32
V12A	2.84
V12S	3.19
V12F	2.94
V12K	2.33
V12P	3.69
V12I	3.58
V12W	2.92
V12T	3.75
V12N	3.81
V12E	3.66
V12D	4.34

Variant	protein stability index
V12C	3.26
V12Y	3.05
V12L	3.19
V12Q	3.5
V12M	2.59
V12R	2.91
V12H	3.66
E11M	2.81
E11R	2.88
E11W	1.55
E11T	3.31
E11S	3
E11Q	2.68
E11P	2.73
E11L	2.28
E11N	2.98
E11V	2.56
E11Y	2.97
E11K	2.3
G21T	2.98
G21E	3.13
G21C	2.72
G21M	3.48
G21F	2.93

Variant	protein stability index
G21V	2.2
G21I	3.15
G21K	2.74
G21P	3.17
G21Y	2.68
G21L	3.18
G21N	3.04
G21D	3.88
G21H	3.33
G21S	3.04
G21Q	3.4
G21W	2.17
G21A	3.25
G21R	3.32
Q16S	2.82
Q16I	1.74
Q16T	2.78
Q16V	2.61
Q16W	2.26
Q16E	3.39
Q16L	2.96
Q16F	2.01
Q16M	2.98
Q16C	2.1

Variant	protein stability index
Q16A	2.81
Q16R	3.09
Q16P	2.77
Q16G	3.42
Q16N	3.32
Q16H	3.75
Q16Y	3.19
Q16K	3.55
Q16D	4.06
G19W	2.14
G19P	3.66
G19A	3.34
G19I	2.85
G19C	2.87
G19H	2.98
G19N	3.05
G19K	3.43
G19D	3.58
G19E	3.63
G19V	3.19
G19Q	3.05
G19M	2.75
G19S	2.81
G19Y	2.9

Variant	protein stability index
G19R	2.47
G19F	3.33
G19T	3.44
G19L	2.81
T17C	2.95
T17Q	3.47
T17M	3.24
T17K	3.24
T17S	2.77
T17P	3.5
T17V	3.62
T17N	3.83
T17A	3.27
T17I	2.75
T17Y	3.11
T17E	3.44
T17W	2.49
T17G	3.66
T17F	2.85
T17D	3.45
T17R	2.8
T17H	3.69
T17L	3.3
V15D	3.23

Variant	protein stability index
V15C	2.82
V15A	3.69
V15W	3.1
V15K	3.01
V15M	2.24
V15T	2.96
V15L	2.68
V15F	3.62
V15I	2.07
V15E	3.44
V15R	3.34
V15S	3.59
V15G	3.63
V15N	3.81
V15Q	4
V15Y	2.92

Variants of: B2
Test: as above
Details: c terminus: a fixed tail appended

Variant	protein stability index
R16A	4
R16K	4.21
R16H	3.69
V7F	3.35
V7A	3.3
V7I	4.02
D9C	2.94
D9F	2.24
D9R	3.54
R6H	4.45
R6L	2.63
R6F	2.68
R6N	3.62
R3K	3.93
R3T	4.02
R3V	1.73
R3Y	2.19
R3N	4.86
R3H	4.39
P21G	2.72
P21N	3.92
N12E	3.98
N12G	4.14
N12H	3.83
N12P	3.41
Q18K	2.91

Variant	protein stability index
T4H	3.89
T4W	2.38
T4R	3.99
T4G	3.41
T4I	1.79
T4V	2.51
V10A	3.38
V10C	3.82
V10N	4.46
N23T	3.73
N23M	3.41
N23Y	2.07
S14H	3.09
F15V	3.79
F15K	4.02
F15Y	3.79
I1E	4.07
I1N	3.61
I1S	3.99
I1Y	4.1
I1G	3.67
I1L	3.27
N11M	2.83
N11F	2.61
N11G	2.99
I5M	2.55

Variant	protein stability index
I5L	2.94
I5E	5.05
L8M	3.75
L8H	4.93
L8D	4.92
L8Q	4.41
K24Q	4.2
K24M	3.82
K24P	3.55
K24S	4.07
K24C	3.4
S22T	3.14
E19I	2.38
Q13M	3.8
K2G	4.51
K2L	3.72
K2W	3.11
K2H	4.01
K2A	3.74
E17V	2.8
E17Y	2.44
E20A	3.69
E20Y	2.75
E20F	2.97
E20Q	2.8
E20D	3.23
